Source: US20250353912A1 (NEW YORK UNIVERSITY, published 2025)

Assays:
[1] = target: T1, HLA-A*03:01 in complex with the KRAS (wild type) peptide … (human); experiment: flow cytometry on peptide-loaded Raji cells (FIG. 16)
T1 construct: also called HLA-A*03:01_WTRAS

[2] = target: T2, HLA-A*01:01 in complex with the BTK peptide … conjugated with Ibrutinib (human, ibrutinib covalently bound to Cys); experiment: phage display selection; MBBA
T2 construct: also called HLA-A*01:01_BTK-Ibrutinib

[3] = target: T3, HLA-A*02:01 in complex with the EGFR peptide … conjugated with osimertinib (human, osimertinib covalently bound to Cys); experiment: phage display selection; MBBA
T3 construct: also called HLA-A*02:01_EGFR-osimertinib; osimertinib-EGFR/HLA-A*02

[4] = target: T1, HLA-A*03:01 in complex with the KRAS …; experiment: MBBA titration of purified IgG (FIG. 11)
[5] = target: T4, HLA-A*11:01 in complex with the KRAS (wild type) peptide … (human); experiment: MBBA titration of purified IgG (FIG. 11)
T4 construct: also called HLA-A*11:01_WTRAS

Row | Binder | binding result [2] | binding result [4] | binding result [5] | further results
1 | P2AMR-1 in the human IgG1 format (antibody, V domains shown, human IgG1; also called P2AMR-1 IgG) VH: QVQLVQSEPEVKKPGSSVKLSCKASGGTFSTDAITWVRQAPGQGLEYMGGIIPLLDSVDYAQRFQGRVTVSADKSTGTAYMEVRSLGSEDTAKYYCAKWSSVDTGLDYWGQGTLVTVSS VL: QSVLIQPRSVSGSPGQSVTISCTGTSSDVGGYNYVSWYQQHPGKAPKLMIYDVSKRPSGVPDRFSGSKSGNTASLTVSGLQAEDEADYYCGSYADTDTIVFGTGTKLTVL |  |  |  | binding result [1]: no binding
2 | IBA1-7 (antibody, V domains shown, phage-display clone) VH: EVQLVESGGGLVQPGGSLRLSCAASGFTLSSSSIHWVRQAPGKGLEWVASISSYYGSTSYADSVKGRFTISADTSKNTAYLQMNSLRAEDTAVYYCARMHYSWQEYYSYDWGMDYWGQGTLVTVSS VL: DIQMTQSPSSLSASVGDRVTITCRASQSVSSAVAWYQQKPGKAPKLLIYSASSLYSGVPSRFSGSRSGTDFTLTISSLQPEDFATYYCQQSYWWKSLVTFGQGTKVEIKR | binds |  |  | 
3 | IBA1-19 (antibody, V domains shown, phage-display clone) VH: EVQLVESGGGLVQPGGSLRLSCAASGFTFSYSSIHWVRQAPGKGLEWVASIYPSSGYTSYADSVKGRFTISADTSKNTAYLQMNSLRAEDTAVYYCARGWWYWMAWDYAMDYWGQGTLVTVSS VL: DIQMTQSPSSLSASVGDRVTITCRASQSVSSAVAWYQQKPGKAPKLLIYSASSLYSGVPSRFSGSRSGTDFTLTISSLQPEDFATYYCQQSWMSDSLITFGQGTKVEIKR | binds |  |  | 
4 | OEA2-12 (antibody, V domains shown, phage-display clone) VH: EVQLVESGGGLVQPGGSLRLSCAASGFTIYSSSIHWVRQAPGKGLEWVASISSYYGYTSYADSVKGRFTISADTSKNTAYLQMNSLRAEDTAVYYCARYQYYGSLYYSQQWAMDYWGQGTLVTVSS VL: DIQMTQSPSSLSASVGDRVTITCRASQSVSSAVAWYQQKPGKAPKLLIYSASSLYSGVPSRFSGSRSGTDFTLTISSLQPEDFATYYCQQYDWNYYLVTFGQGTKVEIKR |  |  |  | binding result [3]: binds
5 | AMRA3-7 (antibody, human IgG1, V domains shown, phage-display clone; purified as human IgG1/kappa; also called AMRA3-7 hIgG1) VH: EVQLVESGGGLVQPGGSLRLSCAASGFTFSSYSIHWVRQAPGKGLEWVASIYSSYGYTSYADSVKGRFTISADTSKNTAYLQMNSLRAEDTAVYYCARGGWYPAMDYWGQGTLVTVSS VL: DIQMTQSPSSLSASVGDRVTITCRASQSVSSAVAWYQQKPGKAPKLLIYSASSLYSGVPSRFSGSRSGTDFTLTISSLQPEDFATYYCQQISYVYSLITFGQGTKVEIKR |  | no binding | no binding | 
6 | AMRA3-18 (antibody, human IgG1, V domains shown, phage-display clone; purified as human IgG1/kappa; also called AMRA3-18 hIgG1) VH: EVQLVESGGGLVQPGGSLRLSCAASGFTVSYSSIHWVRQAPGKGLEWVASISSSSGYTSYADSVKGRFTISADTSKNTAYLQMNSLRAEDTAVYYCARYAWWAHGLDYWGQGTLVTVSS VL: DIQMTQSPSSLSASVGDRVTITCRASQSVSSAVAWYQQKPGKAPKLLIYSASSLYSGVPSRFSGSRSGTDFTLTISSLQPEDFATYYCQQGSYTYRLITFGQGTKVEIKR |  | no binding | no binding | 
7 | IBA1-21 (antibody, V domains shown, phage-display clone) VH: EVQLVESGGGLVQPGGSLRLSCAASGFTISSSSIHWVRQAPGKGLEWVASISSYYGYTSYADSVKGRFTISADTSKNTAYLQMNSLRAEDTAVYYCARYYSYSSGYGYYDYFDWGAMDYWGQGTLVTVSS VL: DIQMTQSPSSLSASVGDRVTITCRASQSVSSAVAWYQQKPGKAPKLLIYSASSLYSGVPSRFSGSRSGTDFTLTISSLQPEDFATYYCQQMQYSGWLITFGQGTKVEIKR | binds |  |  | 
8 | IBA1-13 (antibody, V domains shown, phage-display clone) VH: EVQLVESGGGLVQPGGSLRLSCAASGFTLSSSSIHWVRQAPGKGLEWVASIYSSYGYTYYADSVKGRFTISADTSKNTAYLQMNSLRAEDTAVYYCARYYYYWYGGMDYWGQGTLVTVSS VL: DIQMTQSPSSLSASVGDRVTITCRASQSVSSAVAWYQQKPGKAPKLLIYSASSLYSGVPSRFSGSRSGTDFTLTISSLQPEDFATYYCQQGHDMNPVTFGQGTKVEIKR | binds |  |  | 
9 | AMRA11-15 (antibody, human IgG1, V domains shown, phage-display clone; purified as human IgG1/kappa) VH: EVQLVESGGGLVQPGGSLRLSCAASGFTVYYSSIHWVRQAPGKGLEWVASIYSYYGSTYYADSVKGRFTISADTSKNTAYLQMNSLRAEDTAVYYCARGEKWALDYWGQGTLVTVSS VL: DIQMTQSPSSLSASVGDRVTITCRASQSVSSAVAWYQQKPGKAPKLLIYSASSLYSGVPSRFSGSRSGTDFTLTISSLQPEDFATYYCQQFDFQYLITFGQGTKVEIKR |  | no binding | no binding | 
10 | OEA2-21 (antibody, V domains shown, phage-display clone) VH: EVQLVESGGGLVQPGGSLRLSCAASGFTFSSSYIHWVRQAPGKGLEWVASISPSYGYTSYADSVKGRFTISADTSKNTAYLQMNSLRAEDTAVYYCARDMYEWWHWAIDYWGQGTLVTVSS VL: DIQMTQSPSSLSASVGDRVTITCRASQSVSSAVAWYQQKPGKAPKLLIYSASSLYSGVPSRFSGSRSGTDFTLTISSLQPEDFATYYCQQSSWGGLVTFGQGTKVEIKR |  |  |  | binding result [3]: binds
11 | IBA1-8 (antibody, V domains shown, phage-display clone) VH: EVQLVESGGGLVQPGGSLRLSCAASGFTISYSSIHWVRQAPGKGLEWVASIYPSYGSTSYADSVKGRFTISADTSKNTAYLQMNSLRAEDTAVYYCARWQGYYQPALDYWGQGTLVTVSS VL: DIQMTQSPSSLSASVGDRVTITCRASQSVSSAVAWYQQKPGKAPKLLIYSASSLYSGVPSRFSGSRSGTDFTLTISSLQPEDFATYYCQQPYYPLITFGQGTKVEIKR | binds |  |  | 
12 | AMRA311-17 (antibody, human IgG1, V domains shown, phage-display clone; purified as human IgG1/kappa; also called AMRA311-17 hIgG1) VH: EVQLVESGGGLVQPGGSLRLSCAASGFTISSSSIHWVRQAPGKGLEWVASISSYSGSTYYADSVKGRFTISADTSKNTAYLQMNSLRAEDTAVYYCARYPYGSHVYTGLDYWGQGTLVTVSS VL: DIQMTQSPSSLSASVGDRVTITCRASQSVSSAVAWYQQKPGKAPKLLIYSASSLYSGVPSRFSGSRSGTDFTLTISSLQPEDFATYYCQQSSSSLITFGQGTKVEIKR |  | no binding | no binding | 
13 | AMRA3-22 (antibody, human IgG1, V domains shown, phage-display clone; purified as human IgG1/kappa; also called AMRA3-22 hIgG1) VH: EVQLVESGGGLVQPGGSLRLSCAASGFTFYSSSIHWVRQAPGKGLEWVAYIYSSSGYTSYADSVKGRFTISADTSKNTAYLQMNSLRAEDTAVYYCARPVNYYYQGALDYWGQGTLVTVSS VL: DIQMTQSPSSLSASVGDRVTITCRASQSVSSAVAWYQQKPGKAPKLLIYSASSLYSGVPSRFSGSRSGTDFTLTISSLQPEDFATYYCQQSDMPPITFGQGTKVEIKR |  | no binding | no binding | 
14 | OEA2-16 (antibody, V domains shown, phage-display clone) VH: EVQLVESGGGLVQPGGSLRLSCAASGFTFSSSSIHWVRQAPGKGLEWVASISSSSGSTSYADSVKGRFTISADTSKNTAYLQMNSLRAEDTAVYYCARSPSSPYFMSWGWYWQYGIDYWGQGTLVTVSS VL: DIQMTQSPSSLSASVGDRVTITCRASQSVSSAVAWYQQKPGKAPKLLIYSASSLYSGVPSRFSGSRSGTDFTLTISSLQPEDFATYYCQQSSSSLITFGQGTKVEIKR |  |  |  | binding result [3]: binds
15 | OEA2-1 (antibody, V domains shown, phage-display clone) VH: EVQLVESGGGLVQPGGSLRLSCAASGFTFSSSSIHWVRQAPGKGLEWVASISSSSGSTSYADSVKGRFTISADTSKNTAYLQMNSLRAEDTAVYYCARYYGYVWGGYWGWWYSKALDYWGQGTLVTVSS VL: DIQMTQSPSSLSASVGDRVTITCRASQSVSSAVAWYQQKPGKAPKLLIYSASSLYSGVPSRFSGSRSGTDFTLTISSLQPEDFATYYCQQSSSSLITFGQGTKVEIKR |  |  |  | binding result [3]: binds
16 | AMRA311-16 (antibody, human IgG1, V domains shown, phage-display clone; purified as human IgG1/kappa; also called AMRA311-16 hIgG1) VH: EVQLVESGGGLVQPGGSLRLSCAASGFTISSSSIHWVRQAPGKGLEWVAYISSYSGYTYYADSVKGRFTISADTSKNTAYLQMNSLRAEDTAVYYCARYWYGHYHSYFGLDYWGQGTLVTVSS VL: DIQMTQSPSSLSASVGDRVTITCRASQSVSSAVAWYQQKPGKAPKLLIYSASSLYSGVPSRFSGSRSGTDFTLTISSLQPEDFATYYCQQSSSSLITFGQGTKVEIKR |  | no binding | no binding | 
